The Kd is the equilibrium constant for the complex coming apart. One may read the koff as a measure of how fast the partners let go of each other. The kon is the second-order rate constant of association.

The target in assay [1] is T1, refolded recombinant HLA-A*11:01 monomer (peptide-HLA complex) (Homo sapiens, HLA-A*11:01, strain, also: biotinylated in vitro by biotin ligase, peptide-HLA complex).
T1 construct: HLA-A*11:01 α chain, human, extracellular portion; human beta-2-microglobulin (β2m); the peptide of the crystallised complex is in PDB 6ID4; The methods describe one preparation (biotinylated) for all HLA monomers; copies: + +
T1 chain 1: not shown
T1 chain 2: not shown
T1 chain 3: AIFQSSMTK
The assay can be described thus: quartz crystal microbalance (QCM); Attana Cell A200, 25 °C, PBS running buffer; biotinylated refolded HLA-A*11:01 held on a streptavidin-saturated LNB-carboxyl chip; 2E3-IgG1 injected at 2.5 to 20 nM, single cycle kinetics. Conditions: both partners purified.

The target in assay [2] is T2, HLA-A*34:02 on One Lambda LABScreen Single Antigen beads (Homo sapiens, HLA-A*34:02, strain).
T2 construct: HLA-A*34:02 α chain, human; human beta-2-microglobulin; β2m and peptide are surmised for a class I HLA antigen; source: bought: One Lambda Inc. (LABScreen Single Antigen HLA Class I beads); copies: + +
Description: One Lambda LABScreen Single Antigen bead assay (OL-SAB), HLA Class I; 2E3-IgG1 at 1 μg mL^−1, diluted 20× in negative control serum; HLA antigens on beads. As to conditions: both partners purified.

In assay [3] the target is T3, HLA-A*66:01 on One Lambda LABScreen Single Antigen beads (Homo sapiens, HLA-A*66:01, strain).
T3 construct: HLA-A*66:01 α chain, human; has Asp90; human beta-2-microglobulin; β2m and peptide are surmised for a class I HLA antigen; source: bought: One Lambda Inc. (LABScreen Single Antigen HLA Class I beads); copies: + +
Described as above. Conditions: both partners purified.

Assay [4] has as its target T4, HLA-A*25:01 on One Lambda LABScreen Single Antigen beads (Homo sapiens, HLA-A*25:01, strain).
T4 construct: HLA-A*25:01 α chain, human; human beta-2-microglobulin; β2m and peptide are surmised for a class I HLA antigen; source: bought: One Lambda Inc. (LABScreen Single Antigen HLA Class I beads); copies: + +
The assay is described as above. Conditions: both partners purified.

The target in assay [5] is T5, HLA-A*80:01 on One Lambda LABScreen Single Antigen beads (Homo sapiens, HLA-A*80:01, strain).
T5 construct: HLA-A*80:01 α chain, human; human beta-2-microglobulin; β2m and peptide are surmised for a class I HLA antigen; source: bought: One Lambda Inc. (LABScreen Single Antigen HLA Class I beads); copies: + +
The assay is described as above. Conditions: both partners purified.

The target in assay [6] is T6, HLA-A*43:01 on One Lambda LABScreen Single Antigen beads (Homo sapiens, HLA-A*43:01, strain).
T6 construct: HLA-A*43:01 α chain, human; human beta-2-microglobulin; β2m and peptide are surmised for a class I HLA antigen; source: bought: One Lambda Inc. (LABScreen Single Antigen HLA Class I beads); copies: + +
Described as above. As to conditions: both partners purified.

Assay [7] concerns the target T7, HLA-A*11:01 on One Lambda LABScreen Single Antigen beads (Homo sapiens, HLA-A*11:01, strain).
T7 construct: HLA-A*11:01 α chain, human; human beta-2-microglobulin; β2m and peptide are surmised for a class I HLA antigen; source: bought: One Lambda Inc. (LABScreen Single Antigen HLA Class I beads); copies: + +
The description is as above. Conditions: both partners purified.

In assay [8] the target is T8, HLA-B*73:01 on One Lambda LABScreen Single Antigen beads (Homo sapiens, HLA-B*73:01, strain).
T8 construct: HLA-B*73:01 α chain, human; human beta-2-microglobulin; β2m and peptide are surmised for a class I HLA antigen; source: bought: One Lambda Inc. (LABScreen Single Antigen HLA Class I beads); copies: + +
The assay is described as above. As to conditions: both partners purified.

Assay [9] concerns the target T9, HLA-A*34:01 on One Lambda LABScreen Single Antigen beads (Homo sapiens, HLA-A*34:01, strain).
T9 construct: HLA-A*34:01 α chain, human; human beta-2-microglobulin; β2m and peptide are surmised for a class I HLA antigen; source: bought: One Lambda Inc. (LABScreen Single Antigen HLA Class I beads); copies: + +
Described as above. As to conditions: both partners purified.

The target of assay [10] is T10, HLA-A*36:01 on One Lambda LABScreen Single Antigen beads (Homo sapiens, HLA-A*36:01, strain).
T10 construct: HLA-A*36:01 α chain, human; human beta-2-microglobulin; β2m and peptide are surmised for a class I HLA antigen; source: bought: One Lambda Inc. (LABScreen Single Antigen HLA Class I beads); copies: + +
The description is as above. Conditions: both partners purified.

The target of assay [11] is T11, HLA-A*01:01 on One Lambda LABScreen Single Antigen beads (Homo sapiens, HLA-A*01:01, strain).
T11 construct: HLA-A*01:01 α chain, human; human beta-2-microglobulin; β2m and peptide are surmised for a class I HLA antigen; source: bought: One Lambda Inc. (LABScreen Single Antigen HLA Class I beads); copies: + +
The assay is described as above. As to conditions: both partners purified.

Assay [12] addresses T12, HLA-A*26:01 on One Lambda LABScreen Single Antigen beads (Homo sapiens, HLA-A*26:01, strain).
T12 construct: HLA-A*26:01 α chain, human; human beta-2-microglobulin; β2m and peptide are surmised for a class I HLA antigen; source: bought: One Lambda Inc. (LABScreen Single Antigen HLA Class I beads); copies: + +
The description is as above. As to conditions: both partners purified.

Assay [13] has as its target T1, refolded recombinant HLA-A*11:01 …. Description: ELISA; affinity determination: streptavidin-coated plate, increasing concentrations of biotinylated antigen (16 h) and of primary antibody (8 h), room temperature; goat-anti-human IgG-HRP. Conditions: both partners purified. (In general: In an ELISA, binding on a coated surface is turned into a signal by an enzyme label.)

Assay [14] deals with T13, HLA-A*11:01 on the surface of HLA-A*11:01-positive EBV-BCLs (Homo sapiens, HLA-A*11:01, strain).
T13 construct: HLA-A*11:01 α chain, endogenous on Epstein-Barr virus transformed B-cell lines; human beta-2-microglobulin, endogenous; The cells carry other HLA alleles too; also called A*11:01 homozygous EBV-BCLs; HLA-A*11:01 expressing target cell lines; source: endogenous, on HLA-typed EBV-BCLs; copies: + +
Description: flow cytometry on cells; 0.5×10^6 EBV-BCLs with 5 μg mL^−1 mouse chimeric 2E3, 4 °C, 2 h, PBS with 3% FBS; AlexaFluor-488 goat-anti-mouse IgG. As to conditions: one partner purified. In general terms: In flow cytometry, cells or beads pass a laser one at a time.

Ends that are not written are not given here.

B1: human monoclonal alloantibody 2E3, recombinant human IgG1 (antibody, V domains shown)
VH: EVQLVQSGAEVKKPGASVKVSCKASGYTFTGYYMHWVRQAPGQGLEWMGWINPNSGGTSYAQKFQGRVTMTRDTSTSTVYMELSSLRSEDTAVYYCARVTTVIAGPVFDYWGQGTLVTVSS
VL: QAVLTQPSSLSASPGASASLTCTLRSGINVGPYNIYWYQQKPGSPPQYLMRYKSDPDKHQGSAVPSRFSGSKDASANAGILLISGLQSEDEADYYCMIWHNNAWVFGGGTKLTVL
notes: variable region of the 2E3 heavy chain; constant region of human IgG1 from the heavy chain expression vector; full-length 2E3 light chain; IgG1; isolated from a human Fab phage library (Humanyx) by panning on HLA-A*11:01; also called 2E3-IgG1; source: HEK293, cotransfected, purified from culture supernatants (protein G Sepharose)
B1: the Kd is 10.3 nM in [1] and 0.16 nM in assay [13]. Further, the koff in assay [1] worked out at 0.00033 s⁻¹. Also, the kon in assay [1] came to 104000 M⁻¹ s⁻¹. For the same molecule, the binding result in assay [2], in assay [3], in assay [4], in [5], in assay [6] and in [7] was “binds” each time. Also, the binding result in assay [8], in [9], in assay [10], in [11] and in assay [12] was “binds” throughout.

B2: mouse chimeric form of antibody 2E3 (mouse IgG1 constant region) (antibody, V domains shown)
VH: B1 VH
VL: B1 VL
notes: variable region of the 2E3 heavy chain; constant region of mouse IgG1 from the heavy chain expression vector; full-length 2E3 light chain; used for flow cytometry, detected with goat-anti-mouse IgG; also called mouse Fc chimeric antibody; source: HEK293, cotransfected, purified from culture supernatants (protein G Sepharose)
Take B2: the binding result in [14] was “binds”.
